Source: PMC10906245, “Hydrogen–Deuterium Exchange Mass Spectrometry Identifies Local and Long-Distance Interactions within the Multicomponent Radical SAM Enzyme, PqqE” (ACS Central Science, 2024)
pKd: −log10 of the molar value.

Assays:
[1] = biological target: PqqE in complex with PqqD (PqqDE) (Methylorubrum extorquens, UniProt P71517); assay: HDX-MS, PqqDES versus PqqDE; format: binding; conditions: no PqqA, no reductant, site at RS Fe4S4 cluster (peptide 21-32)
[2] = biological target: PqqD (Methylorubrum extorquens) (UniProt Q49148); conditions: cited from earlier work
Sequence of PqqD (Methylorubrum extorquens) (Q49148 whole entry): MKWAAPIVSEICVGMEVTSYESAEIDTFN

[3] = biological target: PqqE (Methylorubrum extorquens) (UniProt B7KXC6); conditions: cited from earlier work
Sequence of PqqE (Methylorubrum extorquens) (B7KXC6 whole entry): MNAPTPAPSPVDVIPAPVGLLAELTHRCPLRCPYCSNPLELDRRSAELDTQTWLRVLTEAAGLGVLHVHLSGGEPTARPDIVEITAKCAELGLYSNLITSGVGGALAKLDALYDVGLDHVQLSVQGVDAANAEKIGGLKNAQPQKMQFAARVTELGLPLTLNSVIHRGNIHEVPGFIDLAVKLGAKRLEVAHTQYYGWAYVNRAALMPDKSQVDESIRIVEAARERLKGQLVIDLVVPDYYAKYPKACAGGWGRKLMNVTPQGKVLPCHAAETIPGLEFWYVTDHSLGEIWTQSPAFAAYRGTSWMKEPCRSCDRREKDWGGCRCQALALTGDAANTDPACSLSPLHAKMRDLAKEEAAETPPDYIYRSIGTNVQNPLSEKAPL

Sequence of PqqE in complex with PqqD (PqqDE) (Q49150 279-372): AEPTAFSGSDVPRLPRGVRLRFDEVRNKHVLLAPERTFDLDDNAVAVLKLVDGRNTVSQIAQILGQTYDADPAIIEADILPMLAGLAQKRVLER
Sequence of PqqE in complex with PqqD (PqqDE) (P71517 whole entry): as the sequence (B7KXC6 whole entry) above, with S286A, Q293K counted along it

Q: For `C[S+](CC[C@H](N)C(=O)O)C[C@H]1O[C@@H](n2cnc3c(N)ncnc32)[C@H](O)[C@@H]1O` (stereo partly drawn) [SAM, S-adenosylmethionine], which “HDX-MS, PqqDES versus PqqDE” value [1] is on record?
A: Its value is “When SAM was added to the PqqDE complex, we identified one type I peptide”.

Q: With PqqA (from UniProt Q49148) as the molecule, how does the pKd [2] read?
A: The pKd was 6.41.

Q: With PqqD (from UniProt Q49148) as the molecule, how does the pKd [3] read?
A: Its pKd is 5.35.
